Measurements taken from the DeepSol protein solubility set.

experiment: soluble on expression in E. coli; label from the status in PepcDB or PDB records

| Sequence | soluble on expression in E. coli |
| --- | --- |
| MGSDKIHHHHHHMRVFNSSPPSEAQTRTRILQAAQRLFASQGFDGTTTRDLAQAAGVAEGTLFRHFPNKKAILVEVATSGWVEILTDLLTELSEMGSYKAVAQVMRRRMWNFQKNADLMRVCFMEVQFHPDLRDRIQLEVITKMTDVGEAFFQTAMDKGIYRKMDAKLVAKVFLGMFAIAGFSNNTLIEPDASPQQMQEMAEGLADIFLNGVLAKD | not soluble |
| MGSDKIHHHHHHMRVLVVGLGNMGQSHALAHHAADGVEIIGLVNRSSRDLPGALQGYPMIQTVEEGLALSPDLVVIATYSDTHADLACQAMRAGAHVFVEKPLATTVADAKGVVETARETGQKLVVGYILRHHPSWMRLIEEARALGGPYVFRMNLNQQSTGAEWATHKALMQTTSPIVDCGVHYVDVWCQITDARPVAVHGMGLRLSDEIAPEMYNYGQFQVFFDDGSVGWYEAGWGPMMSEVAFFVKDVISPNGAVSITEADKAGSADIDGHTKVGGVLVHRPGDDQLIEFEGEPGHQELCDAEQAFMRRAIAEDLDLSRHMEDAVRSLAICLAADESIRTGQRVTL | not soluble |
| MGSDKIHHHHHHMSAVIGYRHGKAGERGIILCARQFQNSLNESSLEEIKRAIESYPFLQDYYEIGDKYIKSKDGRIVYVFAGLDRNIASIKSMGRVFLCWVDEAEPVTETAWQTLIPTLREEGNDWNAELWVTWNPCRENAPVEKRFRNVNNPHIKGAEITWRDNPQFPEKLNRDRKADLEQRPEHYNHIWEGEYLQTVEGAYYQKALLEASREGRITTVPRDPLMQIRIFWDIGGTGAKADATALWVAQFVGREIRVLDYYEAQGQPLSEHVGWVFQRGYDKALMVLPHDGATKDRVYNVSFESALQQAGFQTKVIPNQGVGAVKMRIEAVRRLFPAIWFNRETTHAGRKALAWYHEKRDEQRNIGLGAEHDWASHGADAFGLMCVAYEQPNMRPKKNTYRSSHHSQTSWMAF | not soluble |
| MGSDKIHHHHHHMSCAHVLRTWAPCIMRRAEQALRNSSYLAWETAMGKLALAAKVTHVPSLYLSELDGPHKGCRQPAIDGHHEIGRRCRELGVDTIVVFDVHWLVNSEYHINCAPKFEGIYTSNELPHFIRNMPYAYPGNVELGNLIAEVASEMGVKSRAHSETTLELEYGTLVPMRYMNADQHFKAVSVAGWCVWHDLDTSVRFGLAVRKAIEERYEGTVAILASGSLSHHFANNGTAEQFMHKVWNPFLEQMDRKVVELWEAGDWKTFCEMLPLYNEKCWGEGGMHDTAMLLGALGWDRYEGKVEVVTPYFGSSGTGQINAIFPVTPLPV | not soluble |
| MGSDKIHHHHHHMSDARGAFHSKGRWSRMALPAILCAGLLVGCGAEPPAEEHVRVLAQTVKMAEFASATSITGDIQARVQADQSFRVGGKIVERLVDVGDHVAAGQVLARLDPQDQRSNVENAQAAVAAQQAQSKLADLNYQRQKALLPKGYTSQSEYDQALASVRSAQSSLKAAQAQLANARDLLSYTELRASDAGVITARQAEVGQVVQATVPIFTLARDGERDAVFNVYESLFSHDVDGQRITVSLLGKPEVTASGKVREITPTVDERSGTLKVKVGLDSVPAEMSLGSVVNASVAAPAEHSVVLPWSALSKVGEQPAVWLLDQQGKARLQPVRVARYASEKVVIDGGLEAGQTVVTVGGQLLHPGQVVEVAQPPQPTQSTASRDAVGGGQP | not soluble |
| MGSDKIHHHHHHMSDKLSQEQIDALLSQMSEGKVVDESTEIGDFGRFHPYDFHKPEKFGAEHLESLKTIASAFTKKSMEFVSQRIRIPIHTEATLADQVSFASGYIETMPNDSYIFCIIDLGNPELGQIIIELDLAYIIYIHECLSGGNPKRKLSERRLLSVFEELTLKSILEKFCEALKDSFKSVHPISPEIVNIETNPALLRVTSPNDMMALVSVDIKSEFWISTMRIGVPFFSVEEIMNKLENVVEYTFDKRRNFDAEVEQELHQVEKEARIRVGEIKTTWKELNMLEVGDVLLTETHIRDTLKGYVTEKWKFECYMGKSGNQKAVKFMRHTGRTEQER | not soluble |
